The source of these data is IntAct's records for PubMed 21460798.

The chains are these.
B1: APC/C activator protein CDH1 (Saccharomyces cerevisiae), P53197 (parent)
chain: MSTNLNPFMNNTPSSSPLKGSESKRVSKRPISSSSSASLLSSPSRRSRPSTVYGDRYIPSRTDIDFNSIVSISSMASVPALNPSSTEDQVEYQKERQAHETYNTLLKNELFGEMLSKDTVGSESSIDRIKNTRPSTRGNVHAENTTRHGYELERVSTPPPEAAGLEEFSPHSTPVTPRRLFTSQQDEITRPSSNSVRGASLLTYQQRKGRRLSAASLLQSQFFDSMSPVRPDSKQLLLSPGKQFRQIAKVPYRVLDAPSLADDFYYSLIDWSSTDVLAVALGKSIFLTDNNTGDVVHLCDTENEYTSLSWIGAGSHLAVGQANGLVEIYDVMKRKCIRTLSGHIDRVACLSWNNHVLTSGSRDHRILHRDVRMPDPFFETIESHTQEVCGLKWNVADNKLASGGNDNVVHVYEGTSKSPILTFDEHKAAVKAMAWSPHKRGVLATGGGTADRRLKIWNVNTSIKMSDIDSGSQICNMVWSKNTNELVTSHGYSKYNLTLWDCNSMDPIAILKGHSFRVLHLTLSNDGTTVVSGAGDETLRYWKLFDKPKAKVQPNSLIFDAFNQIR
B2: Probable serine/threonine-protein kinase HSL1 (Saccharomyces cerevisiae), P34244 (parent)
chain: MTGHVSKTSHVPKGRPSSLAKKAAKRAMAKVNSNPKRASGHLERVVQSVNDATKRLSQPDSTVSVATKSSKRKSRDTVGPWKLGKTLGKGSSGRVRLAKNMETGQLAAIKIVPKKKAFVHCSNNGTVPNSYSSSMVTSNVSSPSIASREHSNHSQTNPYGIEREIVIMKLISHTNVMALFEVWENKSELYLVLEYVDGGELFDYLVSKGKLPEREAIHYFKQIVEGVSYCHSFNICHRDLKPENLLLDKKNRRIKIADFGMAALELPNKLLKTSCGSPHYASPEIVMGRPYHGGPSDVWSCGIVLFALLTGHLPFNDDNIKKLLLKVQSGKYQMPSNLSSEARDLISKILVIDPEKRITTQEILKHPLIKKYDDLPVNKVLRKMRKDNMARGKSNSDLHLLNNVSPSIVTLHSKGEIDESILRSLQILWHGVSRELITAKLLQKPMSEEKLFYSLLLQYKQRHSISLSSSSENKKSATESSVNEPRIEYASKTANNTGLRSENNDVKTLHSLEIHSEDTSTVNQNNAITGVNTEINAPVLAQKSQFSINTLSQPESDKAEAEAVTLPPAIPIFNASSSRIFRNSYTSISSRSRRSLRLSNSRLSLSASTSRETVHDNEMPLPQLPKSPSRYSLSRRAIHASPSTKSIHKSLSRKNIAATVAARRTLQNSASKRSLYSLQSISKRSLNLNDLLVFDDPLPSKKPASENVNKSEPHSLESDSDFEILCDQILFGNALDRILEEEEDNEKERDTQRQRQNDTKSSADTFTISGVSTNKENEGPEYPTKIEKNQFNMSYKPSENMSGLSSFPIFEKENTLSSSYLEEQKPKRAALSDITNSFNKMNKQEGMRIEKKIQREQLQKKNDRPSPLKPIQHQELRVNSLPNDQGKPSLSLDPRRNISQPVNSKVESLLQGLKFKKEPASHWTHERGSLFMSEHVEDEKPVKASDVSIESSYVPLTTVATSSRDPSVLAESSTIQKPMLSLPSSFLNTSMTFKNLSQILADDGDDKHLSVPQNQSRSVAMSHPLRKQSAKISLTPRSNLNANLSVKRNQGSPGSYLSNDLDGISDMTFAMEIPTNTFTAQAIQLMNNDTDNNKINTSPKASSFTKEKVIKSAAYISKEKEPDNSDTNYIPDYTIPNTYDEKAINIFEDAPSDEGSLNTSSSESDSRASVHRKAVSIDTMATTNVLTPATNVRVSLYWNNNSSGIPRETTEEILSKLRLSPENPSNTHMQKRFSSTRGSRDSNALGISQSLQSMFKDLEEDQDGHTSQADILESSMSYSKRRPSEESVNPKQRVTMLFDEEEEESKKVGGGKIKEEHTKLDNKISEESSQLVLPVVEKKENANNTENNYSKIPKPSTIKVTKDTAMESNTQTHTKKPILKSVQNVEVEEAPSSDKKNWFVKLFQNFSSHNNATKASKNHVTNISFDDAHMLTLNEFNKNSIDYQLKNLDHKFGRKVVEYDCKFVKGNFKFKIKITSTPNASTVITVKKRSKHSNTSSNKAFEKFNDDVERVIRNAGRS
partner: B1 chain

The variants in one assay derive from B1. The following applies: with hsl1_yeast HSL1, P34244.
As to MSTNLNPFMNNTPSSSPLKGSESKRVSKRPISSSSSASLLSSPSRRSRPSTVYGDRYIPSRTDIDFNSIVSISSMASVPALNPSSTEDQVEYQKERQAHETYNTLLKNELFGEMLSKDTVGSESSIDRIKNTRPSTRGNVHAENTTRHGYELERVSTPPPEAAGLEEFSPHSTPVTPRRLFTSQQDEITRPSSNSVRGASLLTYQQRKGRRLSAASLLQSQFFDSMSPVRPDSKQLLLSPGKQFRQIAKVPYRVLDAASLADDFYYSLIDWSSTDVLAVALGKSIFLTDNNTGDVVHLCDTENEYTSLSWIGAGSHLAVGQANGLVEIYDVMKRKCIRTLSGHIDRVACLSWNNHVLTSGSRDHRILHRDVRMPDPFFETIESHTQEVCGLKWNVADNKLASGGNDNVVHVYEGTSKSPILTFDEHKAAVKAMAWSPHKRGVLATGGGTADRRLKIWNVNTSIKMSDIDSGSQICNMVWSKNTNELVTSHGYSKYNLTLWDCNSMDPIAILKGHSFRVLHLTLSNDGTTVVSGAGDETLRYWKLFDKPKAKVQPNSLIFDAFNQIR [P258A], the “effect of a mutation on the interaction” value is listed as “disrupting interaction”.

As to MSTNLNPFMNNTPSSSPLKGSESKRVSKRPISSSSSASLLSSPSRRSRPSTVYGDRYIPSRTDIDFNSIVSISSMASVPALNPSSTEDQVEYQKERQAHETYNTLLKNELFGEMLSKDTVGSESSIDRIKNTRPSTRGNVHAENTTRHGYELERVSTPPPEAAGLEEFSPHSTPVTPRRLFTSQQDEITRPSSNSVRGASLLTYQQRKGRRLSAASLLQSQFFDSMSPVRPDSKQLLLSPGKQFRQIAKVPYRVVDAPSLADDFYYSLIDWSSTDVLAVALGKSIFLTDNNTGDVVHLCDTENEYTSLSWIGAGSHLAVGQANGLVEIYDVMKRKCIRTLSGHIDRVACLSWNNHVLTSGSRDHRILHRDVRMPDPFFETIESHTQEVCGLKWNVADNKLASGGNDNVVHVYEGTSKSPILTFDEHKAAVKAMAWSPHKRGVLATGGGTADRRLKIWNVNTSIKMSDIDSGSQICNMVWSKNTNELVTSHGYSKYNLTLWDCNSMDPIAILKGHSFRVLHLTLSNDGTTVVSGAGDETLRYWKLFDKPKAKVQPNSLIFDAFNQIR [L255V], the “effect of a mutation on the interaction” value is listed as “disrupting interaction”.

For the variant MSTNLNPFMNNTPSSSPLKGSESKRVSKRPISSSSSASLLSSPSRRSRPSTVYGDRYIPSRTDIDFNSIVSISSMASVPALNPSSTEDQVEYQKERQAHETYNTLLKNELFGEMLSKDTVGSESSIDRIKNTRPSTRGNVHAENTTRHGYELERVSTPPPEAAGLEEFSPHSTPVTPRRLFTSQQDEITRPSSNSVRGASLLTYQQRKGRRLSAASLLQSQFFDSMSPVRPDSKQLLLSPGKQFRQIAKVPYRVLDAPSLADDFYYSLIDWSSTDVLAVALGKSIFLTDNNTGDVVHLCDTENEYTSLSWIGAGSHLAVGQANGLVEIYDVMKRKCIRTLSGHIDRVACLSWNNHVLTSGSRDHRILHRDVRMPDPFFETIESHTQEVCGLKWNVADNKLASGGNDNVVHVYEGTSKSPILTFDEHKAAVKAMAWSPHKRGVLATGGGTADRRLKIWNVNTSIKMSDIDSGSQICNMVWSKNTNELVTSHGYSKYNLTLWDCNSMDPIAILKGHSFRVLHLTLSNDGTTVVSGAGAETLRYWKLFDKPKAKVQPNSLIFDAFNQIR [D536A], the “effect of a mutation on the interaction” value was “increasing interaction”.

As to MSTNLNPFMNNTPSSSPLKGSESKRVSKRPISSSSSASLLSSPSRRSRPSTVYGDRYIPSRTDIDFNSIVSISSMASVPALNPSSTEDQVEYQKERQAHETYNTLLKNELFGEMLSKDTVGSESSIDRIKNTRPSTRGNVHAENTTRHGYELERVSTPPPEAAGLEEFSPHSTPVTPRRLFTSQQDEITRPSSNSVRGASLLTYQQRKGRRLSAASLLQSQFFDSMSPVRPDSKQLLLSPGKQFRQIAKVPYRVLDAPSLADDFYYSLIDWSSTDVLAVALGKSIFLTDNNTGDVVHLCDTENEYTSLSWIGAGSHLAVGQANGLVEIYDVMKRKCIRTLSGHIDRVACLSWNNHVLTSGSRDHRILHRDVRMPDPFFETIESHTQEVCGLKWNVADNKLASGGNDNVVHVYEGTSKSPILTFDEHKAAVKAMAWSPHKRGVLATGGGTADRRLKIWNVNTSIKMSDIDSGSQICNMVWSKNTNELVTSHGYSKYNLTLWDCNSMDPIAILKGHSFRVLHLTLSNDGTTVVSGAADETLRYWKLFDKPKAKVQPNSLIFDAFNQIR [G535A], the “effect of a mutation on the interaction” value is reported as “disrupting interaction”.

In another assay the parent is B2. The following applies: with cdh1_yeast CDH1, P53197.
On to N777A, for which the “effect of a mutation on the interaction” value is on record as “disrupting interaction”.

Turning to E776A, the “effect of a mutation on the interaction” value was “disrupting interaction”.

With K775A, the “effect of a mutation on the interaction” value is recorded as “disrupting interaction”.

Take E781A: the “effect of a mutation on the interaction” value is reported as “disrupting interaction”.
